The test has as its target G protein-coupled bile acid receptor 1 (GPBAR1), full length, with N-terminal FLAG and BRIL (human) (UniProt Q8TDU6). The experiment in a line: mass photometry.
UniProt Q8TDU6, sequence (Q8TDU6 whole entry): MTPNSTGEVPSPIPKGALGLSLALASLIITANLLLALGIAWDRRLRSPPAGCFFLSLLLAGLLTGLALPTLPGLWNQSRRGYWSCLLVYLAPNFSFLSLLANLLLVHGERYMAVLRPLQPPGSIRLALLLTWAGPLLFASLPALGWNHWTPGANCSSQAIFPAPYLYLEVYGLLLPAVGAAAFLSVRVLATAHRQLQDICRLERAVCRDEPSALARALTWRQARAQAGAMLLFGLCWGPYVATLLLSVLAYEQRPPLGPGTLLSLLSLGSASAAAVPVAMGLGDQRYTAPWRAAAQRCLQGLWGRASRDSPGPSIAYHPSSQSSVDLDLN

“Heterotrimeric Gs (Gαs, Gβ1, Gγ2) (from UniProt P63096 1-18; P63092 16-394; P62873 2-340; P59768 1-71) (complex)” showed a stoichiometry N of 1.
